Results on four molecules are retold here after US20220249640A1 (Dana-Farber, published 2022).

In one test the target is human PD-1 on cells (human, UniProt Q15116 25-288). Put plainly: cell-based or functional assay.
Test [1] has as its target T1, PD-1 (soluble, biotinylated, on sensors or coated on plates) (human, UniProt Q15116 25-167, limits assumed, biotinylated (avi tag, Avidity's biotinylation kit) in the Octet assays).
T1 construct: also called biotinylated PD-1; soluble PD1
Put plainly: method not stated at the list; Octet curves of the mutants in FIG. 23.

In test [2] the target is T1, PD-1 (soluble, biotinylated, on sensors …). Put plainly: Octet (BLI). On the technique in general: BLI is a label-free optical method that tracks binding on a fibre tip over time.
The target of test [3] is T2, mouse PD-1 on transiently transfected Expi293 cells (mouse, UniProt Q02242 25-288).
T2 construct: whole, on cells; also called mPD-1
T2 sequence (looked up): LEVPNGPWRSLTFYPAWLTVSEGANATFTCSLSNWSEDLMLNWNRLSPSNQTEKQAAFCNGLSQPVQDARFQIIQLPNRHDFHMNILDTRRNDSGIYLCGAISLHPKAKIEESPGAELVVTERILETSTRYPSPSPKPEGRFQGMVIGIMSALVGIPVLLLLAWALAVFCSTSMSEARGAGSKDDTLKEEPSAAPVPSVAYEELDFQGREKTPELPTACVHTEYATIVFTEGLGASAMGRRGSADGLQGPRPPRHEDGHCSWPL
Put plainly: flow cytometry on transiently transfected Expi293 cells, anti human Fc-APC. On the procedure:
3E5 transiently transfected Expi293 cells were suspended in 100 ul MACS buffer and added to each well. 50 ul of each antibody dilution were then mixed with the cells and the plate was incubated at 4° C. for 30 min. Following incubation, the plate was washed 2× with MACS buffer and then incubated with lul/well anti human Fc-APC (Biolegend #409306). The plate was incubated for 25 min at 4° C. and then washed 3× before running the samples.
For orientation: Flow cytometry measures light scatter and fluorescence of single cells or particles in a stream.

T1 sequence (Q15116 25-167 limits assumed): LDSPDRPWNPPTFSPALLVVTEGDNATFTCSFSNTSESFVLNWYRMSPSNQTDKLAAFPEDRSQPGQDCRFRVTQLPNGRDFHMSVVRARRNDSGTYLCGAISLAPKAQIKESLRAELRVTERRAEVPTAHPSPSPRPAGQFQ
Sequence of human PD-1 on cells (Q15116 25-288): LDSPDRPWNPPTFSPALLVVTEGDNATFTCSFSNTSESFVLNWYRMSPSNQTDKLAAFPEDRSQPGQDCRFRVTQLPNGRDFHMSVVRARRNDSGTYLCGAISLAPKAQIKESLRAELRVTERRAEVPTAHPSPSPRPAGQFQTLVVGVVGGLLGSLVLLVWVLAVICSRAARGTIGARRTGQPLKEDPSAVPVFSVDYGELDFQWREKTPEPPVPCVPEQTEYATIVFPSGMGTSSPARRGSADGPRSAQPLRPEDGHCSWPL

B1: P4-B3 minibody (scFv-Fc) (Fc fusion)
scFv: QVQLVQSGGGLVQPGRSLRLSCAASGFTFDDYAMHWVRQAPGKGLEWVSGISWNSGSIGYADSVKGRFTVSRDNAKNSLYLQMNSLRAEDTAVYYCASDYGDKYYYYGMDVWGKGTTVTVSSGGGGSGGGGSGGGGSQPGLTQPPSASGTPGQRVTISCSGSSSNIGSNTVNWYQQFPGKAPKLLIFNDNQRPSGVPDRFSASKSGTSASLAISGLQSEDEADYYCAAWDGGLNGRGVFGGGTKLTVL
notes: scFv-Fc (minibody) format; also called P4-B3 WT; P4-B3 wild type; not shown: Fc (hinge-CH2-CH3) of the minibody vector and its junction to the scFv
Turning to B1, the “EC50, Promega PD1-PDL1 bioassay (scFv-Fc format)” value in the test with human PD-1 on cells is 1.75 fold of the EC50 of Nivo. Also, the Kd in test [1] is about 1 nM.

B2: P4-B3 scFv (scFv)
scFv: QVQLVQSGGGLVQPGRSLRLSCAASGFTFDDYAMHWVRQAPGKGLEWVSGISWNSGSIGYADSVKGRFTVSRDNAKNSLYLQMNSLRAEDTAVYYCASDYGDKYYYYGMDVWGKGTTVTVSSGGGGSGGGGSGGGGSQPGLTQPPSASGTPGQRVTISCSGSSSNIGSNTVNWYQQFPGKAPKLLIFNDNQRPSGVPDRFSASKSGTSASLAISGLQSEDEADYYCAAWDGGLNGRGVFGGGTKLTVL
notes: This is a single chain Fv; VH and VL are joined by a G4S linker of which only the DNA is printed
In test [2], B2 returned a dissociation rate constant (koff) of 6.45e-05 s⁻¹ and an on-rate (kon) of 68500 M⁻¹ s⁻¹.

B3: P4-B3 IgG1 wild type monomer (antibody, V domains shown)
VH: QVQLVQSGGGLVQPGRSLRLSCAASGFTFDDYAMHWVRQAPGKGLEWVSGISWNSGSIGYADSVKGRFTVSRDNAKNSLYLQMNSLRAEDTAVYYCASDYGDKYYYYGMDVWGKGTTVTVSS
VL: QPGLTQPPSASGTPGQRVTISCSGSSSNIGSNTVNWYQQFPGKAPKLLIFNDNQRPSGVPDRFSASKSGTSASLAISGLQSEDEADYYCAAWDGGLNGRGVFGGGTKLTVLG
Turning to B3, the “fold induction (RLU stimulated/RLU unstimulated), Promega PD1-PDL1 bioassay” value in the test with human PD-1 on cells was ~0.5 fold of the signal of pembro and nivo.

B4: P4-B3 (format not stated) (antibody, V domains shown)
VH: QVQLVQSGGGLVQPGRSLRLSCAASGFTFDDYAMHWVRQAPGKGLEWVSGISWNSGSIGYADSVKGRFTVSRDNAKNSLYLQMNSLRAEDTAVYYCASDYGDKYYYYGMDVWGKGTTVTVSS
VL: QPGLTQPPSASGTPGQRVTISCSGSSSNIGSNTVNWYQQFPGKAPKLLIFNDNQRPSGVPDRFSASKSGTSASLAISGLQSEDEADYYCAAWDGGLNGRGVFGGGTKLTVL
notes: It was detected with anti human Fc-APC
In the case of B4, the binding result in test [3] is given as “binds”.

The koff is the first-order rate constant of dissociation. A lower koff goes with a long-lived complex. As a reminder, the kon is the rate constant with which the complex forms. Low values mean slow association, high ones fast association.
